Data as given in the nanobody polyreactivity screen of Harvey et al. (2022).

Experiment: yeast display, Sf9 membrane polyspecificity reagent, FACS + sequencing; frameworks hold sequencing errors
Outline: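 In a synthetic yeast display library (Saccharomyces cerevisiae BJ5465), nanobody expression was induced with galactose for 36–48 hours. FACS gates were set low and high (top ~1%) using anti-HA fluorescence for expression and streptavidin fluorescence for binding of the Sf9 membrane reagent. Each polyreactivity label is drawn from the gate of origin.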

For “QVQLVESGGGLVQAGGSLRLSCPASGRTFHYYTLGWYRQSPGKERELVARISLGVGSTYYADSVKGRFTISRDIAKNTVDLQMNSLKPEDTAVYYCNAVWYKSVVKGVYGRVDWGQGTQVTVSS”, the “polyreactivity (PSR sort gate)” value was “low polyreactivity”.
For “QVQLVESGGGLVQAGGSLRLSCAASGIIFFWNAMGWYRQAPGKERELVAAISEDGGGTYYADSVKGRFTISRDNAKNTVYLQMNSLKPEDTAVYYCNTDTSPQIVTRRSFDDYWGQGTQVTVSS”, the “polyreactivity (PSR sort gate)” value was “low polyreactivity”.
With “QVQLVESGGGLVQAGGSLRLSCAASGNIFDIYAMGWYRQAPGKERELVAAISSGGSTYYADSVKGRFTISRDNAKNTVYFQMNSLKPEDTAVYYCAESRVGYYRYEYWGQGTQVTVSS” the “polyreactivity (PSR sort gate)” value was “low polyreactivity”.
With “QVQLVESGGGLVQAGGSLRFSCAASGSTFVYYAMGWYRQAPGKERELVAAITFGGGSTYYADSVKGRFTISRDNAKNTVYLQMNSLKPEDTAVYYCAVYWDDGSAYPPLIVGYDYWGQGTQVTVSS” the “polyreactivity (PSR sort gate)” value was “low polyreactivity”.
With “QVHLQESGGGLVKAGGSLRLSCAASGNISNHNDMGWYRQAPGKEREFVAGITAGGITNYADSVKGRFTISRDNAKNTVYLQMNSLKPEDTAVYYCAASPDYAKSYGYWGQGTQATVSS” the “polyreactivity (PSR sort gate)” value was “low polyreactivity”.
With “QVQLVESGGGLVQAGGSLRLSCAASGRTFFPYAMGWYRQAPGKEREFVAAITWSGGSTTYADSVKGRFTISRDNAKNTVYLQMTSLKPEDTAVYYCNDGRRRSYSYDYWGQGTQVTVSS” the “polyreactivity (PSR sort gate)” value was “low polyreactivity”.
For “QVQLVESGGGLVQAGGSLRLSCAASGFIFEPNAMGWYRQAPGKERELVAAISWSGGSTYYADSVKGRFTISRDNAKNTVYLQMNSLKPEDTAVYYCNADITYAYYEYGSWGQGTQVTVSS”, the “polyreactivity (PSR sort gate)” value was “high polyreactivity”.
In the case of “QVQLVESGGGLVQAGGSLRLSCAASGSTLGSYAMGWYRQAPGKERELVAAINTSGGNTYYADSVKGRFTISRDNAKNTVYLQMNSLKPEDTAVYYCNARYYGGGATFGYWGQGTQVTVSS”, the “polyreactivity (PSR sort gate)” value is reported as “low polyreactivity”.
With “QVQLVESCGGLVQAGGSLRLSCAASRSTFVKYTMGWYRQAPGKERELVATITWSGGSTYYADSVKGRFTISRDNAKNTVYLQLMSLKPEDTAVYYGAIDSGVYRTYQGRWYYYTDFYWGQGTQVTVSS” the “polyreactivity (PSR sort gate)” value was “low polyreactivity”.
With “QVQLVESGGGLVQAGGSLRLSCAASGFIFKFYAMGWYRQAHGKERELVAAISKSGGRTYYADSVKGRFTISRDNAKNTVYLQMNSLKPEDTAVYYCNAPSVGAAFDYWGQGTQVTVSS” the “polyreactivity (PSR sort gate)” value was “high polyreactivity”.
In the case of “QVQLVESGGGLVQAGGSLRLSCAASGRSFGNYVMGWYRQAPGKERELVAAISRSGGSTYYADSVKGRFTISRDNAKNIVYLQMNSLKPEDTAVYYCNTVTTYDVEYWGQGTQVTVSS”, the “polyreactivity (PSR sort gate)” value is reported as “high polyreactivity”.
For “QVQLVESGGGLVQAGGSLRLSCGAYGRIFLFYDMGWYRQEPGKVRELVATISFRGGSTYYADSVKGRFTISRDNAKNTVYLQMNRLKPEDTAVYYCAKQNKRGYSTSAYYSWGQGTQVTVSS”, the “polyreactivity (PSR sort gate)” value was “low polyreactivity”.
For “QVQLVESVGGLLQAGGSLRVSCAASGFTFYRYAMGWYRQAPGKERELVAAITRGGSTNYADSVKRRFTISRDNAKKTVYLQMNSLKPEDTAVYYCAVVSQRTPLRGDYWGQGTQVTVSS”, the “polyreactivity (PSR sort gate)” value was “high polyreactivity”.
In the case of “QVQLVESGGRLVQAGGSLRLSCAASGNIFTVNAMGWYRQAPGKERELVAAISVGDGTTYYADSVKGRFTISRDNAKNTVYLQMNSLKPEDTAVYYCAAEGYTDYEYWGQGTQVTVSS”, the “polyreactivity (PSR sort gate)” value is reported as “high polyreactivity”.
With “QVQLVESGGGLVQAGGSLRLSCAASGRIFVQYAMGWYRQAPGKERELVAAISGSGGRTYYADSVKGRFTISRDNAKNTVYLQMNSLKPEDTAVYYCNTARRHGQTQGGDYWGQGTQLTVSS” the “polyreactivity (PSR sort gate)” value was “high polyreactivity”.
In the case of “QVQLVESGGGLDQAGGSLRLSCAASGSTFVWNAMGWYRHAPGKERELVAAISSSGGSTYYADSVKGRFTISRDNAKNTVYLQMNSLKPEDTAVYYCAKGYYVRMDWGQGTQVTVSS”, the “polyreactivity (PSR sort gate)” value is reported as “high polyreactivity”.
With “QVQLVESGGGLVQAGGSLRLSCAASGITFYIYAMGWYRQSPGKERELVATISWSDGRTYYADSVKGRFTISRDNAKNTVYLLMNSLKPEDTAVYYCAADWWYYQFDYEYWGQGTQVTVSS” the “polyreactivity (PSR sort gate)” value was “low polyreactivity”.
In the case of “QVQLVESGGGLVQAGGSLRLSCAASGFTFRSYAMGWYRQAPGKVRELVAAISLGGTSTYYADSVKGRFTISRDNAKNTVYLPMNSLKPEDTAVYYCAARSYGHYGYWGQGTQVTVSS”, the “polyreactivity (PSR sort gate)” value is reported as “high polyreactivity”.
For “QVQLVESGGGLVQAGGSLRLSCAASGSIFTSYAMGWYRQAPGTERELVAVITSSGSSTYYADSVKGRFTISRDNAKNTVYLQMNSMKPEDTAVYYCYGYYDAYGYWGQGTQVTVSS”, the “polyreactivity (PSR sort gate)” value was “low polyreactivity”.
In the case of “QVQLVESGGGLVQAGGSLRLSCAASGFTFGVYAMGWYRQAPGKERELVAAITWGDGSTYYADSVKGRFTISRDNAKNTVYLQMYSLKPEDTAVYYCIAVTRRHIYYYWGQGTQVTVSS”, the “polyreactivity (PSR sort gate)” value is reported as “high polyreactivity”.
With “QVQLVESGGGLVQAGGSLRLSCAASGSIFRYNTMGWYRQAPGKERELVASIRIGGSTFYADSVKGRFTISRDNAKNTVYLQMNSLKPEDTAVYYCAVRPYRSAGGSVTRGAYYYWGQGTQVTVSS” the “polyreactivity (PSR sort gate)” value was “high polyreactivity”.
For “QGQLVESGGGLVQAGGSLRLSCAASGSIFGGYGMGWYRQAPGKERELVAAITSGSSTYYADSVKGRFTISRDNAKNTVYLQMNSLKPEDTAVYYCAARPYPHSAYEGDYWGRGTQVTVSS”, the “polyreactivity (PSR sort gate)” value was “low polyreactivity”.
In the case of “QVQLVESGGGLVQAGGSLRLSCAASGYIFGVYAMGWYRQAPGKERELVARITSGGSTNYADSVKGRFTISRDNAKNTVYLQMNSLKPEDTAVYYCAAAVGNTDREYDYWGQGTQVTVSS”, the “polyreactivity (PSR sort gate)” value is reported as “low polyreactivity”.
For “QVQLVESGGRLVQAGGSLRLSCAASGSIFGWYAMGWYRQAPGKESEFVASISVTAGSTYYADSVKWRFTISRDNAKNTVYLQMNSLKPEDTAVFYCAADDYTADAVQRFYYWGQGTQVTVSS”, the “polyreactivity (PSR sort gate)” value was “low polyreactivity”.
In the case of “QVQLVESGGGLVQAGGSLRLSCAASGSIFSKNAMGWYRQAPGKERELVAAISWSGDRTYYADSVKGRFTISRDNAKNTVYLQMNSLKPEDTAVYYCAADYTVKYGYWGQGTQVTVSS”, the “polyreactivity (PSR sort gate)” value is reported as “high polyreactivity”.
In the case of “QVQLVESGGGLVQAGGSLRLSCDASGFTFKTNAMGWYRQAPGKERELVAAINRSGGSTYYADSVKGRFTISRDNAKNTVYLQMNSLKPEDTAVYYCATRSYLPGVRRGYDYWGQGTQVTVSS”, the “polyreactivity (PSR sort gate)” value is reported as “high polyreactivity”.
In the case of “QVQLEESGGGLVQAGGSLRLSCAASGSTFLLNAMGWYRQAPGKERELVAAITSSGGTNYADSVKGRFTISRDNAKNTVYLQMNSLKPEDTAVYNCYTRYSPGYQGTEVDYWGQGTQVTVSS”, the “polyreactivity (PSR sort gate)” value is reported as “low polyreactivity”.
In the case of “QVQLVDSGGGLVQAGGSLRLSCAASGSIFSKYAMGGYRQAPGKERELVAAISGSGVSTYYADSVKGRFTISRDNAKNTVFLQMNSLKTEDTAVYYCNARGSFHQPRYGYWGQGTQVTVSS”, the “polyreactivity (PSR sort gate)” value is reported as “high polyreactivity”.
For “QVQLVESGGGLVQAGGSLRLSCAASGSIFSGNAMGWYRQAAGKERELVAVITYRSSRTYYADSVKGRFTISRDNAKNTVYLQMNSLKPEDTAVYYCAAYSNRVVKGYGYWGQGTQVTVSS”, the “polyreactivity (PSR sort gate)” value was “high polyreactivity”.
In the case of “QVQLVESGGGLLQAGGSLRLTCAASGFTFSLNTMGWYRQAPAKEREFVAAINSGDSTYADSVKGRYTISRDNAKNTVYLQMNSLKPEDTAVYYCNADPDWWYPYNYWGQGTQVTVSS”, the “polyreactivity (PSR sort gate)” value is reported as “low polyreactivity”.
For “QVQLVESGGGLVQAGGSLRLSCAAYGSIFPYYAMGWYRQAPGKERELVAGITSGTRTNYADSVKGRFTISRDNAKNTVYLQMNSLKPEDTAVYYCAAYYRAYRRDYYWGQGTQVTVSS”, the “polyreactivity (PSR sort gate)” value was “high polyreactivity”.
In the case of “QVQLVESGGGLVQAGGSLRLSCAASGRTFRYYAMGWYRQAPGKERELVAAISRSGGSTYYAVSVKGRFTISRDNAKNTVYLQMNSLTPEVTAVYYCAARYYVPWFGPSKYTPYDYWGQGIQVTVSS”, the “polyreactivity (PSR sort gate)” value is reported as “high polyreactivity”.
In the case of “QVQLVESGGGLVQAGGSLRLSCAASGRTFGRNTMGWYRQAPGKERELVAGISRSAGRTYYADSVKGRFTISRDNAKNTVYLQMNSLKPEDTAVYYCAARYQGNYRTDKYDYWGQGTQVTVSS”, the “polyreactivity (PSR sort gate)” value is reported as “high polyreactivity”.
For “QVQLVESGGGLVQAGGSLRLSCAASVSTFFRNAMGWYRQAPGKERELVAAISKSGTSTYYADSVKGRFTISRDNAKNTVYLQMNSLKPEDTAVYYCAKYGFSYPQSYAYYYWGQGTQVTVSS”, the “polyreactivity (PSR sort gate)” value was “high polyreactivity”.
In the case of “QVHLVESGGGLVQAGGSLRLSCAASGRTFGTYAMGWYRQAPGKERELVAAISSGGSTNYADSVKGRFTISRGNAKNTVYLQMNSLKPEDTAVYYCAAQGYWTYWPYLLRLYDYWGQGTQVTVSS”, the “polyreactivity (PSR sort gate)” value is reported as “low polyreactivity”.
In the case of “QVHLVESGGGLVQAGGSLRLSCAASGSILLINAMGWYRQAPGKERELVAAIRTGGSTYYADSVKGRFTISRDNAKNTVSLQMNSLKPEDTAVYYCAVRTGRRWWKFDYWGQGTQVTVSS”, the “polyreactivity (PSR sort gate)” value is reported as “low polyreactivity”.
With “QVQLVESGGGLVQAGRSLRLSCAASGIIFEWNGMGWYRQAPGKERELVAALPWSGGSTYYADSVKGRFTISRDNAKNTVYLQMNSLKPEDTAVYYCNAYWKDDFEDGPGRRGMDYWGQGSQVTVSS” the “polyreactivity (PSR sort gate)” value was “low polyreactivity”.
In the case of “QVQLVESGGGLVQAGGSLRLSCAASGRIHVYTMRWYRQAPGQERELVAAITWSGTSTNYADSVKGRFTLSRDNAKNTVYLKMNILKPEDTAVYYCAADISGVLSVSNVRGFDYWGQGTQVTVSS”, the “polyreactivity (PSR sort gate)” value is reported as “low polyreactivity”.
For “QVQLVESGGGLVQAGGSLRLSCADSGFILGANDMGWYRQAPGKERELVAAIRSSDGTTYYADSVKGRFTISRDNAKNTVYLQMNSLKPEDTAVYYCAADWRLLYDYWGQGTQVTVSS”, the “polyreactivity (PSR sort gate)” value was “high polyreactivity”.
For “QVQLVESGGGLVQAGGSLRLSCAASGFTFTRNAMGWYRQAPGKERELVAAISSSAGSTSYADSVKGRFTISRDNAKNPVYLQMNRLKPEDTAVYYCATEGSYYSWVGKVGYRYQYHYWGQGTQVTVSS”, the “polyreactivity (PSR sort gate)” value was “high polyreactivity”.
With “QVQLVESGGGLVQAGGSLRLSCAASGLTFSDYAMGWYRQAPGKERAFVAAITRNGGSTRYADSVKGRFTISRDNAKITVYLQMHSLKPEDTAVYYCATDVGFGRKQRPHRPGYGYWGQGTQVTVSS” the “polyreactivity (PSR sort gate)” value was “low polyreactivity”.
In the case of “QVQLVESGGGLVQAGGSLRLSCAASGRIFGYYAMGWYRQAPGKERELVAAIDSSGGSTTYADSVKGRFTISRDYAKNTVYLQMNSLKPEDTAVYYCNAGYALRSGPWYYYELDYWGQGTQVTVSS”, the “polyreactivity (PSR sort gate)” value is reported as “low polyreactivity”.
For “QVQLVESGGGLVQAGGSLRLSSAASGGTFTKNAMGWYRQAPGKERELVAAISWRGTSTYYADSVKGRFSISRDNAKNTVYLQMNSLKPDDTAVYFCLPWVGYGRYKPGYKYDYWGQGTQVTVSS”, the “polyreactivity (PSR sort gate)” value was “high polyreactivity”.
